In US20070060537:

B1: GST-hPOSH1-139 (protein)
chain: MDESALLDLLECPVCLERLDASAKVLPCQHTFCKRCLLGIVGSRNELRCPECRTLVGSGVEELPSNILLVRLLDGIKQRPWKPGPGGGSGTNCTNALRSQSSTVANCSSKDLQSSQGGQQPRVQSWSPPVRGIPQLPCA
B2: POSH #178 (1-361) gst fusion (protein)
chain: MDESALLDLLECPVCLERLDASAKVLPCQHTFCKRCLLGIVGSRNELRCPECRTLVGSGVEELPSNILLVRLLDGIKQRPWKPGPGGGSGTNCTNALRSQSSTVANCSSKDLQSSQGGQQPRVQSWSPPVRGIPQLPCAKALYNYEGKEPGDLKFSKGDIIILRRQVDENWYHGEVNGIHGFFPTNFVQIIKPLPQPPPQCKALYDFEVKDKEADKDCLPFAKDDVLTVIRRVDENWAEGMLADKIGIFPISYVEFNSAAKQLIEWDKPPVPGVDAGECSSAAAQSSTAPKHSDTKKNTKKRHSFTSLTMANKSSQASQNRHSMEISPPVLISSSNPTAAARISELSGLSCSAPSQVHIST
B3: POSH # 176 (1-269) gst fusion (protein)
chain: MDESALLDLLECPVCLERLDASAKVLPCQHTFCKRCLLGIVGSRNELRCPECRTLVGSGVEELPSNILLVRLLDGIKQRPWKPGPGGGSGTNCTNALRSQSSTVANCSSKDLQSSQGGQQPRVQSWSPPVRGIPQLPCAKALYNYEGKEPGDLKFSKGDIIILRRQVDENWYHGEVNGIHGFFPTNFVQIIKPLPQPPPQCKALYDFEVKDKEADKDCLPFAKDDVLTVIRRVDENWAEGMLADKIGIFPISYVEFNSAAKQLIEWDKP

Key:
[1] = target: GST-UbcH5a, P51668
[2] = target: GST-UbcH5c, P61077
[3] = target: His-UbcH6, P51965
[4] = target: His6-UbcH13/Uev1a, Q13404
[5] = target: E2 Ubch5c from bacteria, P61077
Chain of E2 Ubch5c from bacteria, P61077 (P61077 whole entry): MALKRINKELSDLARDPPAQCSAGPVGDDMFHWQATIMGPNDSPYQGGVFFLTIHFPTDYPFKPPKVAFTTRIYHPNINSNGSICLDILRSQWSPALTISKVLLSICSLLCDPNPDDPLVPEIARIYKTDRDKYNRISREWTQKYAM

Chain of GST-UbcH5a, P51668 (P51668 whole entry): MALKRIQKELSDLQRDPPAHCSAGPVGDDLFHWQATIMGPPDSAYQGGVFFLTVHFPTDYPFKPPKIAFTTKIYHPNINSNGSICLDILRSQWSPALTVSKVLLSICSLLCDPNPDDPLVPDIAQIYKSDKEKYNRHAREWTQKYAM
Chain of His6-UbcH13/Uev1a, Q13404 (chain, as listed by the source, chain 1 of 2): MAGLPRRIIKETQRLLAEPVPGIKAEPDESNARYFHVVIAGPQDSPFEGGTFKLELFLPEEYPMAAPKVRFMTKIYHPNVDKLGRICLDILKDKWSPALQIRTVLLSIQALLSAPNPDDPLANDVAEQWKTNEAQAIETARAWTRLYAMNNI
Chain of His6-UbcH13/Uev1a, Q13404 (Q13404 other isoform, or with tags, fused parts or gaps, chain 2 of 2): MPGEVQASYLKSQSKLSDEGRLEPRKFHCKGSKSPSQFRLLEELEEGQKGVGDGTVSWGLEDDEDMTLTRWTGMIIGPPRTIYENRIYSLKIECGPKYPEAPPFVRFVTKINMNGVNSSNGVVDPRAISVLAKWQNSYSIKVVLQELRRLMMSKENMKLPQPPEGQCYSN
Chain of His-UbcH6, P51965 (P51965 whole entry): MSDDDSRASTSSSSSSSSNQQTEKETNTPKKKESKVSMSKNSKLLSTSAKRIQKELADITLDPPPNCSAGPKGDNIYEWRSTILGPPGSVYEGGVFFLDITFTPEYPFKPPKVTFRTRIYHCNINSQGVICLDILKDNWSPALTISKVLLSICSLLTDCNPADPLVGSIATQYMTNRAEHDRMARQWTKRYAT
Chain of GST-UbcH5c, P61077 (P61077 whole entry): as the sequence (P61077 whole entry) above

| Protein | self-ubiquitination of hPOSH (high molecular weight ubiquitin-biotin conjugates, streptavidin blot) [1] | self-ubiquitination of hPOSH (high molecular weight ubiquitin-biotin conjugates, streptavidin blot) [2] | self-ubiquitination of hPOSH (high molecular weight ubiquitin-biotin conjugates, streptavidin blot) [3] | self-ubiquitination of hPOSH (high molecular weight ubiquitin-biotin conjugates, streptavidin blot) [4] | in-vitro self-ubiquitination of hPOSH (anti-ubiquitin immunoblot) [5] |
| --- | --- | --- | --- | --- | --- |
| B1 | conjugation of ubiquitin to hPOSH was supported by four E2s, UbCH13/Uevla, UBCH5a, UBCH5c and UBCH6 | conjugation of ubiquitin to hPOSH was supported by four E2s, UbCH13/Uevla, UBCH5a, UBCH5c and UBCH6 | conjugation of ubiquitin to hPOSH was supported by four E2s, UbCH13/Uevla, UBCH5a, UBCH5c and UBCH6 | conjugation of ubiquitin to hPOSH was supported by four E2s, UbCH13/Uevla, UBCH5a, UBCH5c and UBCH6 | – |
| B2 | – | – | – | – | Ub-hPOSHconjugates, detected as high molecular weight adducts only in reactions containing E1, E2 and ubiquitin |
| B3 | – | – | – | – | Ub-hPOSHconjugates, detected as high molecular weight adducts only in reactions containing E1, E2 and ubiquitin |
